# B1: MP-24, SIRPαV2 IgV WT-IgG1 Fc hole silent + aCD3 VH-CH1-IgG1 Fc knob silent + aCD3 VL-CL (bispecific antibody)
# chain: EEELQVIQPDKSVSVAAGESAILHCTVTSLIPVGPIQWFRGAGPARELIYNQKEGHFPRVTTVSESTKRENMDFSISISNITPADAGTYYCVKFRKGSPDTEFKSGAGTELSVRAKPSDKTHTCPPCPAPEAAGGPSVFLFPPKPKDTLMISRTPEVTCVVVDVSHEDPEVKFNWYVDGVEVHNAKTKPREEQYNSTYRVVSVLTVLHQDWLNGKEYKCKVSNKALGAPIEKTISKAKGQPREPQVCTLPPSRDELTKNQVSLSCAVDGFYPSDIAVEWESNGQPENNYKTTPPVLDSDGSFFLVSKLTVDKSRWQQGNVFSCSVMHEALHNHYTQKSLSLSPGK
# heavy: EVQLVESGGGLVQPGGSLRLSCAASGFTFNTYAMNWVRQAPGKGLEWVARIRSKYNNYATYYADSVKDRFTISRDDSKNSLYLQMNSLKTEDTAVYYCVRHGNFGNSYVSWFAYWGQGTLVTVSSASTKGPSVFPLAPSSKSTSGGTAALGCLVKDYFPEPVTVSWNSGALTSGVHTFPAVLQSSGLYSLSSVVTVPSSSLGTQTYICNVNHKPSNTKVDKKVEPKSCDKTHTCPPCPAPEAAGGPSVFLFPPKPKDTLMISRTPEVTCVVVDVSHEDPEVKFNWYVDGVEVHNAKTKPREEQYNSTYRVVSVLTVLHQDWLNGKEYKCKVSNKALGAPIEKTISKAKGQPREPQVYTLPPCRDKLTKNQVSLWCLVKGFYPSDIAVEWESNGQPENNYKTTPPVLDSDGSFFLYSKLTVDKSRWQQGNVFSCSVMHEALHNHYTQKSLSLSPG
# light: QAVVTQEPSLTVSPGGTVTLTCRSSTGAVTTSNYANWVQQKPGQAPRGLIGGTNKRAPWTPARFSGSLLGGKAALTITGAQAEDEADYYCALWYSNLWVFGGGTKLTVLGQPKAAPSVTLFPPSSEELQANKATLVCLISDFYPGAVTVAWKADSSPVKAGVETTTPSKQSNNKYAASSYLSLTPEQWKSHRSYSCQVTHEGSTVEKTVAPTECS
# notes: Format FV-67; one wild type SIRPαV2 IgV monomer; also called monovalent wild type SIRPαV2 IgV-IgG1 Fc protein
# Legend:
# [1] = target: T1, human CD47 (cluster of differentiation 47), on cells (human, UniProt Q08722 19-323); assay: FACS on primary human platelets, pH 7.3
# T1 construct: whole, on cells; also called IAP; integrin-associated protein
# Protocol: Human primary platelets were seeded into 96-well plate at 1×10⁶/well and incubated with Fc blocking antibody at room temperature. […] After washing the platelets with 1×PBS+2% FBS at pH 7.3, FITC-labelled anti-human IgG Fc secondary antibody (Abcam, CAT #ab6854) were added and incubated at 4° C. for 30 minutes at pH 7.3. After washing, the platelets were then analyzed by FACS in 1×PBS+2% FBS at pH 7.3.
# [2] = target: T2, His-tagged CD47 extracellular domain (ECD) protein (Abclonal, CAT #RP01306) (human, UniProt Q08722 19-139); assay: ELISA, immobilized His-tagged CD47 ECD, fusion protein as analyte
# T2 construct: extracellular domain; Bought; also called recombinant human CD47 protein with His-tag; His-tag human CD47 ECD protein
binder,measurement,setting,value
B1,binding result,[1],binds
same,binding result,[2],binds

# Reference: US20260274921A1 (ADAPTOCUE, published 2026)
